The target in assay [1] is T1, rat C1s (produced in house) (rat, UniProt Q6P6T1 16-688).
T1 construct: also called RaC1s
T1 sequence: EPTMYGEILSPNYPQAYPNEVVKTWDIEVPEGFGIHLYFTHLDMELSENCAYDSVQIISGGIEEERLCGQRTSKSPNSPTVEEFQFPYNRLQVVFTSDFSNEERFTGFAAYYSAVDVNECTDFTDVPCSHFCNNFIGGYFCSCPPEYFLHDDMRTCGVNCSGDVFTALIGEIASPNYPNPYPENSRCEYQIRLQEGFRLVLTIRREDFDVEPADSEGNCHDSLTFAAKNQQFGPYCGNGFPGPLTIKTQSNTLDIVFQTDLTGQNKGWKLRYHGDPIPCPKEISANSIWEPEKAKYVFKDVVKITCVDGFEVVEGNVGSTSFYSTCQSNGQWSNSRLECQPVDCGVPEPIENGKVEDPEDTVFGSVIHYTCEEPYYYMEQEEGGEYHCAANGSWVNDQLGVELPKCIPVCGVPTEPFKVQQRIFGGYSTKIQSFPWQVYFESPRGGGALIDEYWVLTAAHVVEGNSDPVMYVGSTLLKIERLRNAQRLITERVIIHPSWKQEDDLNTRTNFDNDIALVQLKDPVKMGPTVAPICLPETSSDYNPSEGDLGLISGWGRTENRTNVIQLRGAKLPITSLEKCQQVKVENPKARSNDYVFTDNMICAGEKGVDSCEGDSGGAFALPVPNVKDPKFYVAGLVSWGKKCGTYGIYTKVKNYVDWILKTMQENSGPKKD
In words: BLI (Octet RED96e), antibody on AHC biosensor; C1s Species: Rat; R^2 0.9776. The text has this: (§1) At last, analyte was dissociated in 1×KB for 360 sec. Data analysis was done using OCTET® Data Analysis HT Software (Sartorius AG).

For assay [2], the target named is T2, human C1s mutant M6 (P280A, E282K & K336G) (human, UniProt P09871 16-688).
T2 construct: The entry is the mutant itself
T2 sequence: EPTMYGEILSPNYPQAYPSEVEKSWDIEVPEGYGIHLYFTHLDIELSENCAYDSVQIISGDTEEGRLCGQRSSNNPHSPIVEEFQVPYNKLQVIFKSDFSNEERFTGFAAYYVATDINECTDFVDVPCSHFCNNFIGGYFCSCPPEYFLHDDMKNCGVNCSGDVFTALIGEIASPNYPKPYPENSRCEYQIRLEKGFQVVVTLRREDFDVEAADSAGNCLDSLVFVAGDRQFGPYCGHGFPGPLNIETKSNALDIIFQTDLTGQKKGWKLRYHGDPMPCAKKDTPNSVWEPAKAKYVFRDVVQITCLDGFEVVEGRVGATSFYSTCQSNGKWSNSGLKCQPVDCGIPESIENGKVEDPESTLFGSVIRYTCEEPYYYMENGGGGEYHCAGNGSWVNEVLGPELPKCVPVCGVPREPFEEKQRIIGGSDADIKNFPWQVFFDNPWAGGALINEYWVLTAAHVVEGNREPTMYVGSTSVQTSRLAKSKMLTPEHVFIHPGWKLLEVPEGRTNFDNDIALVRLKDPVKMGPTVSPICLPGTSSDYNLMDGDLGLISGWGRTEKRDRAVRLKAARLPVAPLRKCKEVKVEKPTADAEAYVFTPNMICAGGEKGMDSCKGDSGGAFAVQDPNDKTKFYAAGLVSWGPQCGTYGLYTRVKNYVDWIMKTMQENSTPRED
In words: ELISA, plate coated with human C1s mutant M6: P280A, E282K, K336G, OD450nm. The method, then:
ELISA was carried out by first coating 96-well plates with 200 ng/well of full-length or truncated C1s proteins overnight. The next morning, plates were blocked with SuperBlock T20 blocking buffer (Thermo Scientific 37536) for 1 h with gentle shaking. Then, various concentrations of anti-C1s antibodies diluted in SuperBlock T20 blocking buffer were added to the plates and incubated for 1 h with gentle shaking. Mouse IgG (Sigma-Aldrich 15381) and human IgG1 (BioXCell BP0297) were used as negative controls. The plates were washed before incubating with HRP conjugated secondary antibodies diluted in SuperBlock T20 blocking buffer (goat anti-mouse IgG (H+L) cross-adsorbed secondary antibody HRP (Invitrogen G-21040) or goat anti-human IgG antibody, HRP conjugate (Millipore AP309P)) for 1 h with gentle shaking. At last, the plates were washed and color developed with ELISA liquid HRP substrate (Sigma-Aldrich), followed by stopping the reaction with addition of 1M H₂SO₄ in the same volume as the ELISA liquid substrate. Bound antibody was measured by absorbance at OD₄₅₀ₙₘ.
Binding of anti-C1s antibodies to mutants M1-M20 of human C1s was measured by ELISA as described in Example 4, and results are shown in FIGS. 6B-6U. […]

For assay [3], the target named is T1, rat C1s (produced in house). In words: BLI (Octet RED96e), antibody on AHC biosensor; C1s Species: Rat; R^2 0.9718.
Source text: as §1

B1: Anti-C1s antibody 2-8 (antibody, V domains shown)
VH: EVQLQQSGAELVRPGALVKLSCKASGFNIKEYYMHWVKQRPEQGLEWIGWIDPENGDTIYDPKFQGKASITADTSSNTAYLQLSSLTSEDTAVYYCARSRLFFAYWGQGTLVTVSA
VL: DIVMTQSHKFMSTSVGDRVSFTCKASQDVRTAVDWYQQKPGQSPKLLIYSASYRYTGVPDRFTGTGSGTDFTFTISSVQAEDLAVYFCQQQYTTPYTFGGGTKLEIKT
notes: the HC/LC entries may hold it too; also called clone 2-8
In the case of B1, in assay [1], the Kd amounted to 17 nM, the koff was 0.0012 s⁻¹ and the kon came to 68000 M⁻¹ s⁻¹.

B2: Anti-C1s antibody hz2-7(H1L2) (antibody, V domains shown)
VH: EVQLLESGGGLVQPGGSLRLSCAASGFTFSNYFMNWVRQAPGKGLEWVSEIRLKFTNYATHYADSVKGRFTISRDDSKSTLYLQMNSLRAEDTAVYYCTRDYGSRNGYFDYWGQGTLVTVSS
VL: DIVMTQTPLSLPVTPGEPASISCRSSKSLLHSNGNTFLYWFLQKPGQSPQLLIYRMSNLASGVPDRFSGSGSGTDFTLKISRVEAEDVGVYYCMQHLEYPYTFGGGTKLEIKR
notes: Humanized, human IgG1 / kappa; also called hz2-7(1L2)
B2 showed an EC50 in assay [2] of 0.013 µg/mL.

B3: Anti-C1s antibody hz2-8 (H1L2 G80A/T82A) (antibody, V domains shown)
VH: QVQLVQSGAEVKKPGASVKVSCKASGFNIKEYYMHWVRQAPEQGLEWMGWIDPENADAIYAQKFQGRVTITADTSTNTAYMELSSLRSEDTAVYYCARSRLFFAYWGQGTLVTVSS
VL: DIQMTQSPKSLSASVGDRVTITCRASQDVRTALDWYQQKPGQSPKLLIYSASYRYSGVPSRFSGSGSGTDFTLTISSLQPEDFATYYCQQQYTTPYTFGQGTKLEIKR
notes: Humanized variant with G80A and T82A in HC CDR2 (already in the entry), human IgG1 / kappa
Regarding B3, the EC50 in assay [2] was 0.06 µg/mL. Besides, in assay [3], the Kd worked out at 16 nM, the koff amounted to 0.0012 s⁻¹ and the kon is 75000 M⁻¹ s⁻¹.

The record behind these values is patent publication US20230051715A1 (MABWELL THERAPEUTICS, published 2023).
